This note sets out measurements from patent publication US20240026443A1 (University of Washington, published 2024).

The target in the assay is T1, DddA (intact deaminase domain of the bacterial toxin-derived double stranded DNA cytosine deaminase) (Burkholderia cenocepacia (strain H111), UniProt P0DUH5 1290-1427, limits assumed).
T1 construct: also called double stranded DNA deaminase
T1 sequence: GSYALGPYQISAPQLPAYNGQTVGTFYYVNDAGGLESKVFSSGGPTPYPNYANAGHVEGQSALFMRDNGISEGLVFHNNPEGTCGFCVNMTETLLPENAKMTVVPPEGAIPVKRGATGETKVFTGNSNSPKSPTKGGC
Kind of assay: X-ray crystal structure of the complex.

B1: double stranded DNA deaminase A immunity (DddAI) protein (other)
chain: MYADDFDGEIEIDEVDSLVEFLSRRPAFDANNFVLTFEESGFPQLNIFAKNDIAVVYYMDIGENFVSKGNSASGGTEKFYENKLGGEVDLSKDCVVSKEQMIEAAKQFFATKQRPEQLTWSEL
notes: Expressed inside P. aeruginosa from an arabinose-inducible promoter at the Tn7 attachment site; also called DddIA; DddA cognate immunity determinant
For B1, the binding result is recorded as “binds”.
